Test results taken from publication PMC11848572, “Expanding the Functions of KHSRP Protein: Insights into DNA G‐Quadruplex Binding”.

T1: KHSRP130-503 (four KH domains) (Homo sapiens, UniProt Q92945 130-503)
T1 sequence: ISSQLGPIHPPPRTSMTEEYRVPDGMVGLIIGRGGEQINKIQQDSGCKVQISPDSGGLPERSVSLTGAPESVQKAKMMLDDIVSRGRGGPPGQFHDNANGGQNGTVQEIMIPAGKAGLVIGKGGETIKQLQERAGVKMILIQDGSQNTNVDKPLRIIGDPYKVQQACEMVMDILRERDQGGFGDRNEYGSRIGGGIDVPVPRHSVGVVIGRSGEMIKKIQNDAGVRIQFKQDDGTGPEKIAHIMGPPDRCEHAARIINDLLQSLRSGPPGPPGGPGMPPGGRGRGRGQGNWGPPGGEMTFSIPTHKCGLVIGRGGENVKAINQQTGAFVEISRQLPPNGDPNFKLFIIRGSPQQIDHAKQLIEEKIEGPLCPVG


Molecular target: T1, KHSRP130-503 (four KH domains)
Assay: SPR; 25 C, single-cycle kinetics; SPR at 25 C, 1-20 uM G4 over immobilized protein (buffer not in the material); NMR at 25 C (298 K), protein in 5 mM KH2PO4/K2HPO4 pH 7.0, 20 mM KCl
Conditions: protein: recombinant, tags: N-terminal His-tag (pET-28a), TEV-cleaved

Binder | Kd (hybrid G4, intramolecular) [nM] | Kd (parallel G4, intramolecular) [nM]
TTGGGTTAGGGTTAGGGTTAGGGA (structured_DNA) [mTel24] | 1470 ± 480 | 
GGGCGCGGGAGGAATTGGGCGGG (structured_DNA) [Bcl-2] | 2000 ± 980 | 
TGAGGGTGGGTAGGGTGGGTAA (structured_DNA) [c-Myc] |  | 130 ± 25
CGGGCGGGCGCTAGGGAGGGT (structured_DNA) [c-Kit2] |  | 56 ± 8
AGGGAGGGCGCTGGGAGGAGGG (structured_DNA) [c-Kit1] |  | 190 ± 90
